Where a chain is given by its changes, count along the chain named.
Target: T1, hiR2-FL-E594V-T7 (human, UniProt Q6PJF5 1-856)
T1 sequence: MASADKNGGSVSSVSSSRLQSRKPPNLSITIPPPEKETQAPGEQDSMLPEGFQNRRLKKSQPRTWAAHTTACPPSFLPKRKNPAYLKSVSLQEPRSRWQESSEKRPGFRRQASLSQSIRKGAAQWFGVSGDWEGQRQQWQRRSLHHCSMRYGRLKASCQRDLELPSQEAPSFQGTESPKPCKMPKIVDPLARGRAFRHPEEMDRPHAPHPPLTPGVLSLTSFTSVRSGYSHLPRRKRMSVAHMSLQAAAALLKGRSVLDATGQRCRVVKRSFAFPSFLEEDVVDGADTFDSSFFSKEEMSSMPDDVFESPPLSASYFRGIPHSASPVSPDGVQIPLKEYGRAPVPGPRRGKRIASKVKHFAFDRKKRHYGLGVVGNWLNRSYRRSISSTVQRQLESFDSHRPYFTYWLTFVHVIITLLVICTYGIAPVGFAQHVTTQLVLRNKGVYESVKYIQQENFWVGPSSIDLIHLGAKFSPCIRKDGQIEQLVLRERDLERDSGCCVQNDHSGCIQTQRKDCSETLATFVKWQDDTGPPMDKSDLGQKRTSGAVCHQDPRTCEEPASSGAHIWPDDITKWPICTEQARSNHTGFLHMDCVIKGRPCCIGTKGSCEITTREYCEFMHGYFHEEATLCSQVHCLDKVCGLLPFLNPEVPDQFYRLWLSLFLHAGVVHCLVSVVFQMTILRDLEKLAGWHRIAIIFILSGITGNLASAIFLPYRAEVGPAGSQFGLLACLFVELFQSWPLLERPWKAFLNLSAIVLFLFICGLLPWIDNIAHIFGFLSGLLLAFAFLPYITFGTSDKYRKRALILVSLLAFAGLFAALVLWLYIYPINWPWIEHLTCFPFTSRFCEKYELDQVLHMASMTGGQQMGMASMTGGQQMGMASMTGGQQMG
Experiment: FACS, MEF-DKO cells, 3 µg/ml
How it was run: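 Binding read by flow cytometry after a PE goat anti-mouse IgG F(ab′)2 secondary (1:100, on ice, 1 h, dark). Before that, immortalized MEF-DKO lines carrying single-mutant hiR2-FL-T7 constructs were incubated 1 h on ice with 3 μg/ml antibody or FACS buffer alone.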

B1: antibody 48 (antibody, V domains shown)
VH: QVQLQQSGTELVRPGTSVKVSCKASGYAFTNYLIEWVKQRPGQGLEWIGVINPGSGFTKYNEKFKGKATLTADKSSSTVYMHLSSLTSEDSAVYFCARGLYRAMDYWGQGTSVTVSS
VL: DIQMTQSPASQSASLGESVTITCLASQTIATWLAWYQQKPGKSPQLLIYGATTLADGVPSRFSGGGSGTKFSFKISSLQAEDFVSYYCQQLYSTPYTFGGGTKLEIK
notes: mouse IgG, kappa light chain; also called clone #48; purified antibody 48
Q: B1 was tested. Which “loss of binding vs wild type” value did it give?
A: Its value is ≥ 30%.

B2: antibody 50 (antibody, V domains shown)
VH: B1 VH with T9A, T16A, T30S, V79A, H82Q
VL: B1 VL with A30G, G50A, T52A, T53S, S85N, L91I
notes: mouse IgG, kappa light chain; also called clone #50; purified antibody 50
Q: With B2 as the binder, how does the “loss of binding vs wild type” value read?
A: Its value is ≥ 30%.
